From IntAct's records for PubMed 23178593

B1: Aprataxin and PNK-like factor (Homo sapiens), Q8IW19 (parent)
chain: MSGGFELQPRDGGPRVALAPGETVIGRGPLLGITDKRVSRRHAILEVAGGQLRIKPIHTNPCFYQSSEKSQLLPLKPNLWCYLNPGDSFSLLVDKYIFRILSIPSEVEMQCTLRNSQVLDEDNILNETPKSPVINLPHETTGASQLEGSTEIAKTQMTPTNSVSFLGENRDCNKQQPILAERKRILPTWMLAEHLSDQNLSVPAISGGNVIQGSGKEEICKDKSQLNTTQQGRRQLISSGSSENTSAEQDTGEECKNTDQEESTISSKEMPQSFSAITLSNTEMNNIKTNAQRNKLPIEELGKVSKHKIATKRTPHKEDEAMSCSENCSSAQGDSLQDESQGSHSESSSNPSNPETLHAKATDSVLQGSEGNKVKRTSCMYGANCYRKNPVHFQHFSHPGDSDYGGVQIVGQDETDDRPECPYGPSCYRKNPQHKIEYRHNTLPVRNVLDEDNDNVGQPNEYDLNDSFLDDEEEDYEPTDEDSDWEPGKEDEEKEDVEELLKEAKRFMKRK

Variants of: B1
Settings: with xrcc5_human XRCC5, P13010
Sequence of xrcc5_human XRCC5, P13010 (P13010 whole entry): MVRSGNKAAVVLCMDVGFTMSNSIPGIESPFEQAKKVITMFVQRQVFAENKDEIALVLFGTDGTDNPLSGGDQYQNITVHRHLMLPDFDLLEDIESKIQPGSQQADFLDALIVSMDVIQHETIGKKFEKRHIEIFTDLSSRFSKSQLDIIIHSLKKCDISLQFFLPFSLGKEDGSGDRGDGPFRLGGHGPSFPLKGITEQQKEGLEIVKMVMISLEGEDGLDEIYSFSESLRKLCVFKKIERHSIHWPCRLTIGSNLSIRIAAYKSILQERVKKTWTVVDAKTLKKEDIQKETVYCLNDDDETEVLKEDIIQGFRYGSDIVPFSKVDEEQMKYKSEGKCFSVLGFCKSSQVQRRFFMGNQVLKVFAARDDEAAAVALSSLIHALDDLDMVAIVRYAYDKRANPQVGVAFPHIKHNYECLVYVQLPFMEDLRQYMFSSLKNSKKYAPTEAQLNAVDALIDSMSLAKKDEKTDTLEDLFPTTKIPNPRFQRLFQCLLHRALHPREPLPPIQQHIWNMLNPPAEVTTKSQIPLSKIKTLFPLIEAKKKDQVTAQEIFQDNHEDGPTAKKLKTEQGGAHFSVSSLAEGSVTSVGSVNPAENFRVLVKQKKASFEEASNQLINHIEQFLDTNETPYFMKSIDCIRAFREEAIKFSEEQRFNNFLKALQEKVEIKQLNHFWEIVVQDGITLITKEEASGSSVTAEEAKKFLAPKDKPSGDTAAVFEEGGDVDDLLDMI

| Variant | effect of a mutation on the interaction |
| --- | --- |
| W189G | disrupting interaction |
